Source: patent US20100120634A1 (Pfizer, published 2010)

Tests used:
[1] = target: biotin labeled hRAGE-Fc (human) (UniProt Q15109); assay: HTRF competition; scFv against Eu-cryptate XT-M4 for biotin-hRAGE-Fc
biotin labeled hRAGE-Fc = target: T1, biotin labeled hRAGE-Fc (human, UniProt Q15109 24-344, biotin-labeled (site not stated)); assay: as above
T1 construct: used biotinylated in HTRF and coated in ELISA; also called Biotin-labeled RAGE-Fc; biotinylated-RAGE-Fc; not shown: Fc part not described
T1 sequence (Q15109 24-344): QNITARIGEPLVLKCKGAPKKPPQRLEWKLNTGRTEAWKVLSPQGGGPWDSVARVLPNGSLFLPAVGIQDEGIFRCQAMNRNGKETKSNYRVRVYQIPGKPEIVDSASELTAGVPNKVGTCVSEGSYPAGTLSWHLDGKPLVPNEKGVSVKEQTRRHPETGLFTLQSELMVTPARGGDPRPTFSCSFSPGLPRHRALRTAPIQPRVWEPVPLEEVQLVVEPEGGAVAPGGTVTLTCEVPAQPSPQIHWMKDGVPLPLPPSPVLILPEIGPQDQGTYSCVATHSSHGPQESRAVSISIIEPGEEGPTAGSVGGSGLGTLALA

biotin labeled hRAGE-Fc (human), sequence (Q15109 24-344): as above

B1: 6A12 scFv (scFv, from a related filing, part only)
scFv: DIQMTQSPSSLSASVGDRVTITCRASQDVGIYVNWFQQKPGKAPRRLIYRATNLADGVPSRFSGSRSGTDFTLTISSLQPEDFATYYCLQYDAHPLTFGGGTKVEIKDGGGSGGGGSGGGGSSEVQLVESGGGLVQPGGSLRLSCAASGFTFNNYWMTWVRQAPGKGLEWVASIDNSGDNTYYPDSVKDRFTISRDNAKNSLYLQMNSLRAEDTAVYYCARGGDITTGFDYWGQGTLVTVSS
[1]
  IC50: 8.27 nM

B2: 3B7 scFv (scFv, from a related filing, part only)
scFv: DIQMTQSPSSLSASVGDRVTITCRASQDVGIYVNWFQQKPGKAPRRLIYRATNLADGVPSRFSGSRSGTDFTLTISSLQPEDFATYYCLQFDSHPLTFGGGTKVEIKDGGGSGGGGSGGGGSSEVQLVESGGGLVQPGGSLRLSCAASGFTFNNYWMTWVRQAPGKGLEWVASIDNSGDNTYYPDSVKDRFTISRDNAKNSLYLQMNSLRAEDTAVYYCARGGDITTGFDYWGQGTLVTVSS
[1]
  IC50: 7.35 nM

B3: 6B6 scFv (scFv)
chain: DIQMTQSPSSLSASVGDRVTITCRASQDVGIYVNWFQQKPGKAPRRLIYRATNLADGVPSRFSGSRSGTDFTLTISSLQPEDFATYYCLEFDEHPLTFGGGTKVEIKDGGGSGGGGSGGGGSSEVQLVESGGGLVQPGGSLRLSCAASGFTFNNYWMTWVRQAPGKGLEWVASIDNSGDNTYYPDSVKDRFTISRDNAKNSLYLQMNSLRAEDTAVYYCARGGDIIISLDWWGQGTLVTVSS
Biotin labeled hRAGE-Fc
  IC50: 0.64 nM

B4: 6D5 scFv (scFv)
chain: DIQMTQSPSSLSASVGDRVTITCRASQDVGIYVNWFQQKPGKAPRRLIYRATNLADGVPSRFSGSRSGTDFTLTISSLQPEDFATYYCLEFDEHPLTFGGGTKVEIKDGGGSGGGGSGGGGSSEVQLVESGGGLVQPGGSLRLSCAASGFTFNNYWMTWVRQAPGKGLEWVASIDNSGDNTYYPDSVKDRFTISRDNAKNSLYLQMNSLRAEDTAVYYCARGGDIKVSLDQWGQGTLVTVSS
Biotin labeled hRAGE-Fc
  IC50: 1.45 nM

B5: 6E3 scFv (scFv)
chain: DIQMTQSPSSLSASVGDRVTITCRASQDVGIYVNWFQQKPGKAPRRLIYRATNLADGVPSRFSGSRSGTDFTLTISSLQPEDFATYYCLEFDEHPLTFGGGTKVEIKDGGGSGGGGSGGGGSSEVQLVESGGGLVQPGGSLRLSCAASGFTFNNYWMTWVRQAPGKGLEWVASIDNSGDNTYYPDSVKDRFTISRDNAKNSLYLQMNSLRAEDTAVYYCARGGDIRVSLDFWGQGTLVTVSS
Biotin labeled hRAGE-Fc
  IC50: 1.74 nM

B6: 3D5 scFv (scFv)
chain: DIQMTQSPSSLSASVGDRVTITCRASQDVGIYVNWFQQKPGKAPRRLIYRATNLADGVPSRFSGSRSGTDFTLTISSLQPEDFATYYCLEFDEHPLTFGGGTKVEIKDGGGSGGGGSGGGGSSEVQLVESGGGLVQPGGSLRLSCAASGFTFNNYWMTWVRQAPGKGLEWVASIDNSGDNTYYPDSVKDRFTISRDNAKNSLYLQMNSLRAEDTAVYYCARGGDIKVGLDLWGQGTLVTVSS
Biotin labeled hRAGE-Fc
  IC50: 2.99 nM

B7: 3G8 scFv (scFv, from a related filing, part only)
scFv: DIQMTQSPSSLSASVGDRVTITCRASQDVGIYVNWFQQKPGKAPRRLIYRATNLADGVPSRFSGSRSGTDFTLTISSLQPEDFATYYCLQYDAHPLTFGGGTKVEIKDGGGSGGGGSGGGGSSEVQLVESGGGLVQPGGSLRLSCAASGFTFNNYWMTWVRQAPGKGLEWVASIDNSGDNTYYPDSVKDRFTISRDNAKNSLYLQMNSLRAEDTAVYYCARGGDITTGFDYWGQGTLVTVSS
[1]
  IC50: 8.08 nM

B8: 3C6 scFv (scFv)
chain: DIQMTQSPSSLSASVGDRVTITCRASQDVGIYVNWFQQKPGKAPRRLIYRATNLADGVPSRFSGSRSGTDFTLTISSLQPEDFATYYCLEFDEHPLTFGGGTKVEIKDGGGSGGGGSGGGGSSEVQLVESGGGLVQPGGSLRLSCAASGFTFNNYWMTWVRQAPGKGLEWVASIDNSGDNTYYPDSVKDRFTISRDNAKNSLYLQMNSLRAEDTAVYYCARGGDIVVGLDHWGQGTLVTVSS
Biotin labeled hRAGE-Fc
  IC50: 1.25 nM

B9: 3B4 scFv (scFv)
chain: DIQMTQSPSSLSASVGDRVTITCRASQDVGIYVNWFQQKPGKAPRRLIYRATNLADGVPSRFSGSRSGTDFTLTISSLQPEDFATYYCLEFDEHPLTFGGGTKVEIKDGGGSGGGGSGGGGSSEVQLVESGGGLVQPGGSLRLSCAASGFTFNNYWMTWVRQAPGKGLEWVASIDNSGDNTYYPDSVKDRFTISRDNAKNSLYLQMNSLRAEDTAVYYCARGGDIREGLRYWGQGTLVTVSS
Biotin labeled hRAGE-Fc
  IC50: 1.3 nM

B10: 6C11 scFv (scFv, from a related filing, part only)
scFv: DIQMTQSPSSLSASVGDRVTITCRASQDVGIYVNWFQQKPGKAPRRLIYRATNLADGVPSRFSGSRSGTDFTLTISSLQPEDFATYYCLQYDAHPLTFGGGTKVEIKDGGGSGGGGSGGGGSSEVQLVESGGGLVQPGGSLRLSCAASGFTFNNYWMTWVRQAPGKGLEWVASIDNSGDNTYYPDSVKDRFTISRDNAKNSLYLQMNSLRAEDTAVYYCARGGDITTGFDYWGQGTLVTVSS
[1]
  IC50: 9.03 nM

B11: 6C3 scFv (scFv)
chain: DIQMTQSPSSLSASVGDRVTITCRASQDVGIYVNWFQQKPGKAPRRLIYRATNLADGVPSRFSGSRSGTDFTLTISSLQPEDFATYYCLEFDEHPLTFGGGTKVEIKDGGGSGGGGSGGGGSSEVQLVESGGGLVQPGGSLRLSCAASGFTFNNYWMTWVRQAPGKGLEWVASIDNSGDNTYYPDSVKDRFTISRDNAKNSLYLQMNSLRAEDTAVYYCARGGDITLGLDVWGQGTLVTVSS
Biotin labeled hRAGE-Fc
  IC50: 1.52 nM

B12: 6C1 scFv (scFv)
chain: DIQMTQSPSSLSASVGDRVTITCRASQDVGIYVNWFQQKPGKAPRRLIYRATNLADGVPSRFSGSRSGTDFTLTISSLQPEDFATYYCLELDEHPLTFGGGTKVEIKDGGGSGGGGSGGGGSSEVQLVESGGGLVQPGGSLRLSCAASGFTFNNYWMTWVRQAPGKGLEWVASIDNSGDNTYYPDSVKDRFTISRDNAKNSLYLQMNSLRAEDTAVYYCARGGDIKVGLDNWGQGTLVTVSS
Biotin labeled hRAGE-Fc
  IC50: 4.44 nM

B13: 3B2 scFv (scFv)
chain: DIQMTQSPSSLSASVGDRVTITCRASQDVGIYVNWFQQKPGKAPRRLIYRATNLADGVPSRFSGSRSGTDFTLTISSLQPEDFATYYCLEFDEHPLTFGGGTKVEIKDGGGSGGGGSGGGGSSEVQLVESGGGLVQPGGSLRLSCAASGFTFNNYWMTWVRQAPGKGLEWVASIDNSGDNTYYPDSVKDRFTISRDNAKNSLYLQMNSLRAEDTAVYYCARGGDILVGLDYWGQGTLVTVSS
Biotin labeled hRAGE-Fc
  IC50: 0.91 nM
